Source: US20140087995A1 (published 2014)
Numbered stars: 1 amine (or outer) side, 2 acyl side, 3 side chain; on linkers, the order of the positions; unused ones are H or OH. Bridge positions count the residues as written; N and C are the ends. Side chains are listed from the residue outwards. Ends that are not written are not given here. * marks the point of attachment. C20 diacid = O=C(O)CCCCCCCCCCCCCCCCCCC(=O)*; γGlu = O=C(O)[C@H](CCC(=O)[*:2])N[*:1]; AEEA = NCCOCCOCC(=O)O

T1: human calcitonin receptor (human, UniProt P30988 25-474)
T1 construct: whole, on cells; Assay used cell membranes of the transfected BHK cells; also called hCTR; hCT
T1 sequence (looked up): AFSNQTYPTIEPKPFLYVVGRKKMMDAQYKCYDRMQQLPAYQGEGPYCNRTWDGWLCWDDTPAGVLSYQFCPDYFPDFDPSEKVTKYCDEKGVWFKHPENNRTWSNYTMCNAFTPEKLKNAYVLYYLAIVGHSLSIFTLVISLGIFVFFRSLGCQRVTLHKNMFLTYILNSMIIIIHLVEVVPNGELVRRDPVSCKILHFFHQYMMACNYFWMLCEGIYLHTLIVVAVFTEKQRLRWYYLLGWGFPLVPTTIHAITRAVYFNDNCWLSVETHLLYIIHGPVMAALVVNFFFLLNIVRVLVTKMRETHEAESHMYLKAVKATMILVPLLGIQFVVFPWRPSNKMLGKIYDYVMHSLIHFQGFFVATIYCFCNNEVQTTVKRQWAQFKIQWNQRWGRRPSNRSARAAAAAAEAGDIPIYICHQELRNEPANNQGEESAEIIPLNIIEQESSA

B1: N^ε1-[(4S)-4-carboxy-4-[[(4S)-4-carboxy-4-(19-carboxynonadecanoylamino)butanoyl]amino]butanoyl]-[Asp14,Arg17,Pro22,Pro26,Asp35]-h-amylin (peptide)
peptide: K([γGlu-γGlu-C20 diacid])CNTATCATQRLADFLRHSSNPFGAPLSSTNVGSDTY-NH2
modifications: disulfide 2-7; N-terminus assumed
SMILES: CC(C)C[C@H](NC(=O)[C@H](CCCNC(=N)N)NC(=O)[C@H](CCC(N)=O)NC(=O)[C@@H](NC(=O)[C@H](C)NC(=O)[C@@H]1CSSC[C@H](NC(=O)[C@@H](N)CCCCNC(=O)CC[C@H](NC(=O)CC[C@H](NC(=O)CCCCCCCCCCCCCCCCCCC(=O)O)C(=O)O)C(=O)O)C(=O)N[C@@H](CC(N)=O)C(=O)N[C@@H]([C@@H](C)O)C(=O)N[C@@H](C)C(=O)N[C@@H]([C@@H](C)O)C(=O)N1)[C@@H](C)O)C(=O)N[C@@H](C)C(=O)N[C@@H](CC(=O)O)C(=O)N[C@@H](Cc1ccccc1)C(=O)N[C@@H](CC(C)C)C(=O)N[C@@H](CCCNC(=N)N)C(=O)N[C@@H](Cc1c[nH]cn1)C(=O)N[C@@H](CO)C(=O)N[C@@H](CO)C(=O)N[C@@H](CC(N)=O)C(=O)N1CCC[C@H]1C(=O)N[C@@H](Cc1ccccc1)C(=O)NCC(=O)N[C@@H](C)C(=O)N1CCC[C@H]1C(=O)N[C@@H](CC(C)C)C(=O)N[C@@H](CO)C(=O)N[C@@H](CO)C(=O)N[C@H](C(=O)N[C@@H](CC(N)=O)C(=O)N[C@H](C(=O)NCC(=O)N[C@@H](CO)C(=O)N[C@@H](CC(=O)O)C(=O)N[C@H](C(=O)N[C@@H](Cc1ccc(O)cc1)C(N)=O)[C@@H](C)O)C(C)C)[C@@H](C)O
notes: Synthetic analogue; also called compound 3
B2: N{Alpha-1}-[(4S)-4-carboxy-4-(19-carboxynonadecanoylamino)butanoyl]-[Glu14,Arg17,Pro21,Pro27,Lys34]-h-amylin (peptide)
peptide: {C20 diacid-γGlu}-KCNTATCATQRLAEFLRHSSPNFGAIPSSTNVGKNTY-NH2
modifications: disulfide 2-7
SMILES: CC[C@H](C)[C@H](NC(=O)[C@H](C)NC(=O)CNC(=O)[C@H](Cc1ccccc1)NC(=O)[C@H](CC(N)=O)NC(=O)[C@@H]1CCCN1C(=O)[C@H](CO)NC(=O)[C@H](CO)NC(=O)[C@H](Cc1c[nH]cn1)NC(=O)[C@H](CCCNC(=N)N)NC(=O)[C@H](CC(C)C)NC(=O)[C@H](Cc1ccccc1)NC(=O)[C@H](CCC(=O)O)NC(=O)[C@H](C)NC(=O)[C@H](CC(C)C)NC(=O)[C@H](CCCNC(=N)N)NC(=O)[C@H](CCC(N)=O)NC(=O)[C@@H](NC(=O)[C@H](C)NC(=O)[C@@H]1CSSC[C@H](NC(=O)[C@H](CCCCN)NC(=O)CC[C@H](NC(=O)CCCCCCCCCCCCCCCCCCC(=O)O)C(=O)O)C(=O)N[C@@H](CC(N)=O)C(=O)N[C@@H]([C@@H](C)O)C(=O)N[C@@H](C)C(=O)N[C@@H]([C@@H](C)O)C(=O)N1)[C@@H](C)O)C(=O)N1CCC[C@H]1C(=O)N[C@@H](CO)C(=O)N[C@@H](CO)C(=O)N[C@H](C(=O)N[C@@H](CC(N)=O)C(=O)N[C@H](C(=O)NCC(=O)N[C@@H](CCCCN)C(=O)N[C@@H](CC(N)=O)C(=O)N[C@H](C(=O)N[C@@H](Cc1ccc(O)cc1)C(N)=O)[C@@H](C)O)C(C)C)[C@@H](C)O
notes: Synthetic analogue; also called compound 36
B3: N^α1-[(4S)-4-carboxy-4-(19-carboxynonadecanoylamino)butanoyl]-[Glu14,Arg17,Pro21,Pro25,Pro28,Pro29]-h-amylin (peptide)
peptide: {C20 diacid-γGlu}-KCNTATCATQRLAEFLRHSSPNFGPILPPTNVGSNTY-NH2
modifications: disulfide 2-7
SMILES: CC[C@H](C)[C@H](NC(=O)[C@@H]1CCCN1C(=O)CNC(=O)[C@H](Cc1ccccc1)NC(=O)[C@H](CC(N)=O)NC(=O)[C@@H]1CCCN1C(=O)[C@H](CO)NC(=O)[C@H](CO)NC(=O)[C@H](Cc1c[nH]cn1)NC(=O)[C@H](CCCNC(=N)N)NC(=O)[C@H](CC(C)C)NC(=O)[C@H](Cc1ccccc1)NC(=O)[C@H](CCC(=O)O)NC(=O)[C@H](C)NC(=O)[C@H](CC(C)C)NC(=O)[C@H](CCCNC(=N)N)NC(=O)[C@H](CCC(N)=O)NC(=O)[C@@H](NC(=O)[C@H](C)NC(=O)[C@@H]1CSSC[C@H](NC(=O)[C@H](CCCCN)NC(=O)CC[C@H](NC(=O)CCCCCCCCCCCCCCCCCCC(=O)O)C(=O)O)C(=O)N[C@@H](CC(N)=O)C(=O)N[C@@H]([C@@H](C)O)C(=O)N[C@@H](C)C(=O)N[C@@H]([C@@H](C)O)C(=O)N1)[C@@H](C)O)C(=O)N[C@@H](CC(C)C)C(=O)N1CCC[C@H]1C(=O)N1CCC[C@H]1C(=O)N[C@H](C(=O)N[C@@H](CC(N)=O)C(=O)N[C@H](C(=O)NCC(=O)N[C@@H](CO)C(=O)N[C@@H](CC(N)=O)C(=O)N[C@H](C(=O)N[C@@H](Cc1ccc(O)cc1)C(N)=O)[C@@H](C)O)C(C)C)[C@@H](C)O
notes: Synthetic analogue; also called compound 6
B4: N^ε1-[2-[2-[2-[[(4S)-4-carboxy-4-(19-carboxynonadecanoylamino)butanoyl]amino]ethoxy]ethoxy]acetyl]-[Arg17,Pro21,Pro27]-h-amylin (peptide)
peptide: K([AEEA-γGlu-C20 diacid])CNTATCATQRLANFLRHSSPNFGAIPSSTNVGSNTY-NH2
modifications: disulfide 2-7; N-terminus assumed
SMILES: CC[C@H](C)[C@H](NC(=O)[C@H](C)NC(=O)CNC(=O)[C@H](Cc1ccccc1)NC(=O)[C@H](CC(N)=O)NC(=O)[C@@H]1CCCN1C(=O)[C@H](CO)NC(=O)[C@H](CO)NC(=O)[C@H](Cc1c[nH]cn1)NC(=O)[C@H](CCCNC(=N)N)NC(=O)[C@H](CC(C)C)NC(=O)[C@H](Cc1ccccc1)NC(=O)[C@H](CC(N)=O)NC(=O)[C@H](C)NC(=O)[C@H](CC(C)C)NC(=O)[C@H](CCCNC(=N)N)NC(=O)[C@H](CCC(N)=O)NC(=O)[C@@H](NC(=O)[C@H](C)NC(=O)[C@@H]1CSSC[C@H](NC(=O)[C@@H](N)CCCCNC(=O)COCCOCCNC(=O)CC[C@H](NC(=O)CCCCCCCCCCCCCCCCCCC(=O)O)C(=O)O)C(=O)N[C@@H](CC(N)=O)C(=O)N[C@@H]([C@@H](C)O)C(=O)N[C@@H](C)C(=O)N[C@@H]([C@@H](C)O)C(=O)N1)[C@@H](C)O)C(=O)N1CCC[C@H]1C(=O)N[C@@H](CO)C(=O)N[C@@H](CO)C(=O)N[C@H](C(=O)N[C@@H](CC(N)=O)C(=O)N[C@H](C(=O)NCC(=O)N[C@@H](CO)C(=O)N[C@@H](CC(N)=O)C(=O)N[C@H](C(=O)N[C@@H](Cc1ccc(O)cc1)C(N)=O)[C@@H](C)O)C(C)C)[C@@H](C)O
notes: Synthetic analogue; also called compound 41
B5: N^ε1-[2-[2-[2-(19-carboxynonadecanoylamino)ethoxy]ethoxy]acetyl]-[Arg17,Pro21,Pro27]-h-amylin (peptide)
peptide: K([AEEA-C20 diacid])CNTATCATQRLANFLRHSSPNFGAIPSSTNVGSNTY-NH2
modifications: disulfide 2-7; N-terminus assumed
SMILES: CC[C@H](C)[C@H](NC(=O)[C@H](C)NC(=O)CNC(=O)[C@H](Cc1ccccc1)NC(=O)[C@H](CC(N)=O)NC(=O)[C@@H]1CCCN1C(=O)[C@H](CO)NC(=O)[C@H](CO)NC(=O)[C@H](Cc1c[nH]cn1)NC(=O)[C@H](CCCNC(=N)N)NC(=O)[C@H](CC(C)C)NC(=O)[C@H](Cc1ccccc1)NC(=O)[C@H](CC(N)=O)NC(=O)[C@H](C)NC(=O)[C@H](CC(C)C)NC(=O)[C@H](CCCNC(=N)N)NC(=O)[C@H](CCC(N)=O)NC(=O)[C@@H](NC(=O)[C@H](C)NC(=O)[C@@H]1CSSC[C@H](NC(=O)[C@@H](N)CCCCNC(=O)COCCOCCNC(=O)CCCCCCCCCCCCCCCCCCC(=O)O)C(=O)N[C@@H](CC(N)=O)C(=O)N[C@@H]([C@@H](C)O)C(=O)N[C@@H](C)C(=O)N[C@@H]([C@@H](C)O)C(=O)N1)[C@@H](C)O)C(=O)N1CCC[C@H]1C(=O)N[C@@H](CO)C(=O)N[C@@H](CO)C(=O)N[C@H](C(=O)N[C@@H](CC(N)=O)C(=O)N[C@H](C(=O)NCC(=O)N[C@@H](CO)C(=O)N[C@@H](CC(N)=O)C(=O)N[C@H](C(=O)N[C@@H](Cc1ccc(O)cc1)C(N)=O)[C@@H](C)O)C(C)C)[C@@H](C)O
notes: Synthetic analogue; also called compound 43

The binders below were run against T1, human calcitonin receptor (assay: SPA radioligand competition (125I-calcitonin), membranes of BHK cells with human calcitonin receptor).
Procedure, shortened: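 BHK hCTR membranes 35 ng/μL + SPA beads 0.05 mg/well; buffer 50 mM Hepes pH 7.4, 1 mM CaCl2, 5 mM MgCl₂, 0.1% OA, 0.02% Tween20. 120 min, 25° C., shaking. Scintillation count; IC50 by one-site binding competition.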

Row | IC50 [nM] | Binder
1 | 19.5 | B1
2 | 6.3 | B2
3 | 19.9 | B3
4 | 21.3 | B4
5 | 2.64 | B5

What follows are binders tested against T1, human calcitonin receptor (assay: ratio IC50 hCTR / IC50 hAmylin-R of the two SPA competition assays; reference: human amylin receptor).
Procedure, shortened: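 Competition binding by SPA uses membrane preparations (35 ng/μL final) in pH 7.4 Hepes buffer with 1 mM CaCl2 and 5 mM MgCl₂. Incubation lasts 120 min at 25° C, and IC₅₀ comes from one-site fitting.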

Row | Ratio hCT/hAmylin binding | Binder
6 | 17.3 | B1
7 | 15.7 | B2
8 | 20 | B3
9 | 49.9 | B4
10 | 34.7 | B5
